This series has as its target T1, H-NS (Escherichia coli, UniProt P0ACF8 1-137).
T1 sequence: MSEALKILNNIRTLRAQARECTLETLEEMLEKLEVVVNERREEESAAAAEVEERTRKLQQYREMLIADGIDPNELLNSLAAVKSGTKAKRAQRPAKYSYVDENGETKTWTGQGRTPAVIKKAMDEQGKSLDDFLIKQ
The series is described as follows: EMSA; 0-80 ng/uL protein; 10 mM Mg2+; EMSA: 10 mM Tris-HCl pH 7.9, 125 mM KCl, 10 mM MgCl2, 0.1 mM DTT, 2.5% glycerol, 30 min, room temperature; bridging: 20 mM Tris-HCl pH 7.4, 150 mM NaCl, 1 mM DTT, 5% glycerol, 0.05% Tween 20, room temperature. Particulars: protein: recombinant; tags: His6 (N-terminal); chain copies: 2; blunt.

B1: HBS dsDNA probe (P21/P22) (dsDNA)
DNA 1: TAATTATTATAACTAAAAGTTTCTTTAATAATAAAACGAATAACTTGCAGATTTGAAAT
DNA 2: ATTTCAAATCTGCAAGTTATTCGTTTTATTATTAAAGAAACTTTTAGTTATAATAATTA
As to B1, the binding result is listed as “binds”.

The record behind these values is paper PMC12455589, “Abundant bacterial nucleoid-associated protein H-NS limits plasmid transfer through mechanical modification of DNA”.
